Results published in the nanobody polyreactivity screen of Harvey et al. (2022).

Assay: yeast display, Sf9 membrane polyspecificity reagent, FACS + sequencing; frameworks hold sequencing errors
Summary of the method: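 Galactose-induced (36–48 hours) yeast carrying a synthetic nanobody display library were exposed to 10% biotinylated, detergent-solubilized Sf9 membrane reagent at 4 °C for 1 hour. FACS followed streptavidin microbead enrichment, using low and high (top ~1%) gates for expression (anti-HA) and reagent binding (streptavidin). Colony PCR, MiSeq 2 × 250 sequencing and CDR-length filtering followed. Labels for polyreactivity reflect the gate of origin.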

Sequence | polyreactivity (PSR sort gate)
QVQLVESGGGLVQAGGSLRLSCAASGSTFDYNAKGSYRQAPGKERELVAVISSSGGSTYYADSVKGRFTISRDIAMNTVYLQMNSLKPVDTAVYYCAALYRNYGSSYAYYYWGLGTQVTVSS | low polyreactivity
QVQLVESGGGLVQAGGSLRLSCAASGSTFDYNAMGWYRQAPGKERELVAAISARGTSTYYADSVKGRFTISRDNAKTTVYLQMNSLKPEDTAVYYCAARIHTAYYIFGYWGQGTQVTVSS | high polyreactivity
QVQLVESGGGLVQAGGSLRLSCAASGSTFDYNAMGWYRQAPGKERELVAAISWRGGGTYYADSVKGRFTISRDNAKNTVYLQMNSLKPEDTAVYYCNTVSRNGFYRSRHDYWGQGTQVTVSS | low polyreactivity
QVQLVESGGGLVQAGGSLRLSCAASGSTFDYYAMGWSRQAPGKERELVAAITGTGGSTYYADSEKGRFTISRNNAKNTVYLQMNSLKPEDTAVYYCNRVSGTRRHTMDYWGQGTQVTVSS | low polyreactivity
QVQLVESGGGLVQAGGSLRLSCAASGSTFDYYAMGWYRQAPGKERELVAAISGSGGSTYYADSVKGRITISRDNAKNTVYLQMNSLKPEDTAVYYCATVRSRLFGQYYYWGQGTQVTVSS | high polyreactivity
QVQLVESGGGLVQAGGSLRLSCAASGSTFDYYARGWYRQAPGKERELVAGISSSGGRTYYADSVKGRFTISRDNAKNTVYLQMNSLKPEDTAVYYCAARIRVRKHEAFDYWGQGTQVTVSS | low polyreactivity
QVQLVESGGGLVQAGGSLRLSCAASGSTFDYYDMGWYRQAPGKERELVAAISSGGDSTYYADSVKGRFTISRDNAKNTVYLQMNSLKPEDTAVYYCAAAVYYGQSVWYYYWGQGTQVTVSS | high polyreactivity
QVQLVESGGGLVQAGGSLRLSCAASGSTFDYYDMGWYRQAPGKERELVAAISYSGTSTYYADSVKGRFTISRDNAKNTVYLQMNSLKPEDTAVYYCAKVFPDWYWYDYWGQGTQVTVSS | low polyreactivity
QVQLVESGGGLVQAGGSLRLSCAASGSTFEDYAMGGYRQAPGKERELVAAISHIGGSTYYADSVKGRFTISRDNAKNTVYLQMNSLKPEDTAVYYCAKGGFSSKFDFWGQGTQVTVSS | low polyreactivity
QVQLVESGGGLVQAGGSLRLSCAASGSTFEDYAMGWYTQAPGKERELVAAINKTGGSTNYADSVKGRFTISRDNAKNTVYLQMNSLKPEDTAVYYCAADGSNYSASVAAFPYRVVYWGQGTQVTVSS | low polyreactivity
QVQLVESGGGLVQAGGSLRLSCAASGSTFEFYAMGWYRQAPGKERELVAAIWRGGSTHYADSVKGRFTISRDNAKNTVYLQMNSLKPEDTAVYYCAASPYIFWRFEYWGQGTQVTVSS | low polyreactivity
QVQLVESGGGLVQAGGSLRLSCAASGSTFEPYAMGCYRQAPGKERELVAAISWSGGSTYYADSVKGRFTISRDNAKNTVDLQMNSLKPEDTAVYYCAAESGVPYYLPVVIYYYWGQGTQVTVSS | high polyreactivity
QVQLVESGGGLVQAGGSLRLSCAASGSTFERYVMGWYRQRLGKKGSWLPVLNHNGGSTYYADSVKGRFTISRDNAKNTVYLQMNSLKPEDTAVYYCAASFRTVLDFGYWGQGTQVTVSS | low polyreactivity
QVQLVESGGGLVQAGGSLRLSCAASGSTFESNAMGWYRQAPGKERELVASISGSGGSTFYADSVKGRFTISRDNAKNTVYLQMNSLKPEDTAVYYCNRGRDEYDYWGQGTQVTVSS | low polyreactivity
QVQLVESGGGLVQAGGSLRLSCAASGSTFESYAMGWYRQAHGKERELVASISRSGGTTFYADSVKGRFTISRDNAKNTVYLQMNSLKPEDTAVYYCAAKRRRLGGDYWGQGTQVTVSS | high polyreactivity
QVQLVESGGGLVQAGGSLRLSCAASGSTFESYAMGWYRQAPGKERELVAAISWRVGSTYYADSVKGRFTISRDNAKNTVYLQMNSLKPEDTAVYYCASKGWYSHYGGYDYWGQGTQVTVSS | low polyreactivity
QVQLVESGGGLVQAGGSLRLSCAASGSTFEYNAMGWYRQAPGKERELVASSTNYADSVKGRFTISRDNAKNTVYLQMNSLKPVDTAVYYCAREQGVNRNHDYWGQGTQLTVSS | low polyreactivity
QVQLVESGGGLVQAGGSLRLSCAASGSTFEYNVMGWYRQAPGKERELVASITSDGNTNYSDSVKGRFTISRDNAKNTVYLQMNSLKPEDTAVYYCNFYTWHWTFGMDYWGQGTQVTVSS | low polyreactivity
QVQLVESGGGLVQAGGSLRLSCAASGSTFEYYAMGWDRQAPGKERELVAGISTGGSSNYADSVKGRFTISRDNAKNTVYLQMNSLKPEDTAVYYCNRDWALYVFGSHYHAYYSWGQGTQVTVSS | low polyreactivity
QVQLVESGGGLVQAGGSLRLSCAASGSTFEYYAMGWYRQAPGKEREFVAAITLSGGRTYYADSVKGRFTISRDNAKNTVYLQMNSLKPEDTAVYYCNVVVTWWLPSEYDYWGQGTQVTVSS | high polyreactivity
QVQLVESGGGLVQAGGSLRLSCAASGSTFEYYAMGWYRQAPGKERELVAAISRGGSTYYADSVKGRFTISRDNAKNTVYLQMNSLKPEDTAVYYCAAAPDYRAEYDYWGQGTQVTVSS | low polyreactivity

Sequence | polyreactivity (PSR sort gate)
QVQLVESGGGLVQAGGSLRLSCAASGSTFFAYAMGWYRQAPGKERELVAAITGRGSTYYADSVKGRFSISRDNAKNTVYLQMNSLKPEDTAVYYCAAQRSRRYYRLDYWGQGTQVTVSS | high polyreactivity
QVQLVESGGGLVQAGGSLRLSCAASGSTFFDNAMGWYRQAPGKERELVAAITWNGGRTYYADSVKGRFTISRDNAKNTVYLQMNSLKPEDTAVYYCAKVPLYGRVIYRQPDVYSWGQGTQVTVSS | high polyreactivity
QVQLVESGGGLVQAGGSLRLSCAASGSTFFFNAMGWYRQAPGKERELVASITDTSGRTYYADSVKGRFTISRDNAKNTVYLHMNSLKPEDTAVYYCDKDFDQGGREMDYWGQGTQVTVSS | low polyreactivity
QVQLVESGGGLVQAGGSLRLSCAASGSTFFGYDMGWYRQAPGKERELVASINSGGSTYFADSEKGRFTISRDNPKNTVYLQMNSLKPEDTAVYYCAARPSYLYPYDRTGEYDYWGQGTQVTVSS | high polyreactivity
QVQLVESGGGLVQAGGSLRLSCAASGSTFFIYAMGWYRQAPGKERELVAAISKSGGTTYYADSVKGRFTISRDNAKNTVYLQMNSLKPEDTAVYYCAAYYTKGVARRQFYYWGQGTQVTVSS | high polyreactivity
QVQLVESGGGLVQAGGSLRLSCAASGSTFFIYAMGWYRQAPGKERELVATITKRGGRTYYADSVKGRFTISRDNAKNTVYLQMNSLKPEDTAVYYCAKDLWAVYLPGYDYWGQGTQVTVSS | low polyreactivity
QVQLVESGGGLVQAGGSLRLSCAASGSTFFKYAMGWYRPAPRKERELVAAISYSGGSTYYADSVKGRFTISRDNAKNTVYLQMNSLKPEDTAVYYCAARVQNRYRPYYYWGQGTQVTVSS | high polyreactivity
QVQLVESGGGLVQAGGSLRLSCAASGSTFFKYAMGWYRQAPGKERELVAGITSDGSTNYADSVKGRFTISRDNAKNTVYLQMNSLKPEDTAVYYCAADGSKWGVGTYDYWGQGTQVTVSS | low polyreactivity
QVQLVESGGGLVQAGGSLRLSCAASGSTFFLYAMGWYRQAPGKERELVAAITYTDGDTYYADSVKGRFTISRDNAKNTVYLQMNSLKPEDTAVFYCNAGGDEPVYGSGYDYWGQGTQVTVSS | low polyreactivity
QVQLVESGGGLVQAGGSLRLSCAASGSTFFLYAMGWYRQAPGKERELVASITDGGSTNYADSVKGRFTISRDNAKNTVYLQMNSLKPEDTAVYYCNALARSSRYDYWGQGTQVTVSS | low polyreactivity
QVQLVESGGGLVQAGGSLRLSCAASGSTFFQYAMGWYRQAPGKERELVAAITTSGGRTYYADSVKGRFTISRDNAKNTVYLQMNSLKPEDTAVYYCAGYNYWGQGTQVTVSS | high polyreactivity
QVQLVESGGGLVQAGGSLRLSCAASGSTFFRNAKGWYRQAPGKERELVAANSSTGGTTYYAHSVKGRFTISRDNAQNTVYLQMNSLKPEETAVYYCAAAGYIENDGYVQKFEYWGQGTQVTVSS | low polyreactivity
QVQLVESGGGLVQAGGSLRLSCAASGSTFFRYAMGLYRQAPGKERELVAAISWSGGTTYYADSVKGRFTISRDNAQNTVYLQMYSLKPEDTAVYYCNAVRQGHILDYWGQGTQVTVSS | low polyreactivity
QVQLVESGGGLVQAGGSLRLSCAASGSTFFRYAMGWYRQAPGKEREFVAAISKRGGSTHYADSVQGRFTLSRDNAKNTVYLQMNSLKPEHTAVYYCAASSFTSSYNYWGQGTQVTVSS | high polyreactivity
QVQLVESGGGLVQAGGSLRLSCAASGSTFFRYSMGWYRQAPGKEREFVAAISKRGGSTHYADSVKGRFTITRDNAKNTVYLQMNSLKPEDTAVYYCAASSFNSSYNYWGQGTQVTVSS | high polyreactivity
QVQLVESGGGLVQAGGSLRLSCAASGSTFFSNTMGWYRQAPGKERELVAAITDSGTSTYYADSVKGRFTISRDNAKNTVYLQMNSLKPEDTAVYYCAAYPSGWYDYWGQGTLVTVSS | low polyreactivity
QVQLVESGGGLVQAGGSLRLSCAASGSTFFSYAMGWYRQAPGTERELVAAITRSGGSTYYADSVKGRFTISRDNAKNTVYLQMNSLKPEDTAVYYCAPRRYEPKAVYYWGQGTQVTVSS | high polyreactivity
QVQLVESGGGLVQAGGSLRLSCAASGSTFFTYAMGWYRQAPGKERELVASISIGGSTNYADSVKGRFTISRDNAKNTVYLQMNSLKPEDTAVYYCAIRYFTFGVDYDYWGHGTQVTVSS | low polyreactivity
QVQLVESGGGLVQAGGSLRLSCAASGSTFFVNAMGWYRQAPGKERELVAAISYSGGSTYYADSVKGRFTSSRDNAKNTVYLQMNSLKPEDTAVYYCAKDGGPAQDIGMDYCGQGTQVTVSS | low polyreactivity
QVQLVESGGGLVQAGGSLRLSCAASGSTFFVYTMGWYRQAPGKERELVAAISGSGGSTSYADSVKGRFTISRDNAKNTVYLQMNSLKPEDTAVYYCAARRHVYLRGSTFEFNYWGQGTQVTVSS | high polyreactivity
